Measurements taken from patent publication US7658917 (PRAECIS PHARMACEUTICALS, dated 2010).
Like-named read-outs stand apart in the source and are kept apart here. Ends that are not written are not given here. * marks the point of attachment. Cholyl = C[C@H](CCC(=O)*)[C@H]1CC[C@H]2[C@@H]3[C@H](O)C[C@@H]4C[C@H](O)CC[C@]4(C)[C@H]3C[C@H](O)[C@]12C; iminobiotinyl = N=C1N[C@H]2[C@H](CS[C@H]2CCCCC(=O)*)N1

B1: cholyl-Aβ16-20 (Phe19->Ala) (peptide)
peptide: Cholyl-KLVAF-OH
SMILES: CC(C)C[C@H](NC(=O)[C@H](CCCCN)NC(=O)CC[C@@H](C)[C@H]1CC[C@H]2[C@@H]3[C@H](O)C[C@@H]4C[C@H](O)CC[C@]4(C)[C@H]3C[C@H](O)[C@]12C)C(=O)N[C@H](C(=O)N[C@@H](C)C(=O)N[C@@H](Cc1ccccc1)C(=O)O)C(C)C
B2: cholyl-Aβ6-19-amide (PPI-321 as printed in Table III) (peptide)
peptide: Cholyl-HDSGYEVHHQKLVF-NH2
SMILES: CC(C)C[C@H](NC(=O)[C@H](CCCCN)NC(=O)[C@H](CCC(N)=O)NC(=O)[C@H](Cc1c[nH]cn1)NC(=O)[C@H](Cc1c[nH]cn1)NC(=O)[C@@H](NC(=O)[C@H](CCC(=O)O)NC(=O)[C@H](Cc1ccc(O)cc1)NC(=O)CNC(=O)[C@H](CO)NC(=O)[C@H](CC(=O)O)NC(=O)[C@H](Cc1c[nH]cn1)NC(=O)CC[C@@H](C)[C@H]1CC[C@H]2[C@@H]3[C@H](O)C[C@@H]4C[C@H](O)CC[C@]4(C)[C@H]3C[C@H](O)[C@]12C)C(C)C)C(=O)N[C@H](C(=O)N[C@@H](Cc1ccccc1)C(N)=O)C(C)C
B3: cholyl-Aβ6-17-amide (peptide)
peptide: Cholyl-HDSGYEVHHQKL-NH2
SMILES: CC(C)C[C@H](NC(=O)[C@H](CCCCN)NC(=O)[C@H](CCC(N)=O)NC(=O)[C@H](Cc1c[nH]cn1)NC(=O)[C@H](Cc1c[nH]cn1)NC(=O)[C@@H](NC(=O)[C@H](CCC(=O)O)NC(=O)[C@H](Cc1ccc(O)cc1)NC(=O)CNC(=O)[C@H](CO)NC(=O)[C@H](CC(=O)O)NC(=O)[C@H](Cc1c[nH]cn1)NC(=O)CC[C@@H](C)[C@H]1CC[C@H]2[C@@H]3[C@H](O)C[C@@H]4C[C@H](O)CC[C@]4(C)[C@H]3C[C@H](O)[C@]12C)C(C)C)C(N)=O
B4: cholyl-Aβ6-10-amide (peptide)
peptide: Cholyl-HDSGY-NH2
SMILES: C[C@H](CCC(=O)N[C@@H](Cc1c[nH]cn1)C(=O)N[C@@H](CC(=O)O)C(=O)N[C@@H](CO)C(=O)NCC(=O)N[C@@H](Cc1ccc(O)cc1)C(N)=O)[C@H]1CC[C@H]2[C@@H]3[C@H](O)C[C@@H]4C[C@H](O)CC[C@]4(C)[C@H]3C[C@H](O)[C@]12C
B5: Cholyl-penta-alanine (peptide)
peptide: Cholyl-AAAAA-OH
SMILES: C[C@H](NC(=O)[C@H](C)NC(=O)[C@H](C)NC(=O)[C@H](C)NC(=O)[C@H](C)NC(=O)CC[C@@H](C)[C@H]1CC[C@H]2[C@@H]3[C@H](O)C[C@@H]4C[C@H](O)CC[C@]4(C)[C@H]3C[C@H](O)[C@]12C)C(=O)O
B6: cholyl-Aβ6-14-amide (peptide)
peptide: Cholyl-HDSGYEVHH-NH2
SMILES: CC(C)[C@H](NC(=O)[C@H](CCC(=O)O)NC(=O)[C@H](Cc1ccc(O)cc1)NC(=O)CNC(=O)[C@H](CO)NC(=O)[C@H](CC(=O)O)NC(=O)[C@H](Cc1c[nH]cn1)NC(=O)CC[C@@H](C)[C@H]1CC[C@H]2[C@@H]3[C@H](O)C[C@@H]4C[C@H](O)CC[C@]4(C)[C@H]3C[C@H](O)[C@]12C)C(=O)N[C@@H](Cc1c[nH]cn1)C(=O)N[C@@H](Cc1c[nH]cn1)C(N)=O
B7: cholyl-Aβ14-20 (peptide)
peptide: Cholyl-HQKLVFF-OH
SMILES: CC(C)C[C@H](NC(=O)[C@H](CCCCN)NC(=O)[C@H](CCC(N)=O)NC(=O)[C@H](Cc1c[nH]cn1)NC(=O)CC[C@@H](C)[C@H]1CC[C@H]2[C@@H]3[C@H](O)C[C@@H]4C[C@H](O)CC[C@]4(C)[C@H]3C[C@H](O)[C@]12C)C(=O)N[C@H](C(=O)N[C@@H](Cc1ccccc1)C(=O)N[C@@H](Cc1ccccc1)C(=O)O)C(C)C
B8: cholyl-Aβ15-20 (peptide)
peptide: Cholyl-QKLVFF-OH
SMILES: CC(C)C[C@H](NC(=O)[C@H](CCCCN)NC(=O)[C@H](CCC(N)=O)NC(=O)CC[C@@H](C)[C@H]1CC[C@H]2[C@@H]3[C@H](O)C[C@@H]4C[C@H](O)CC[C@]4(C)[C@H]3C[C@H](O)[C@]12C)C(=O)N[C@H](C(=O)N[C@@H](Cc1ccccc1)C(=O)N[C@@H](Cc1ccccc1)C(=O)O)C(C)C
B9: cholyl-Aβ15-19 (peptide)
peptide: Cholyl-QKLVF-OH
SMILES: CC(C)C[C@H](NC(=O)[C@H](CCCCN)NC(=O)[C@H](CCC(N)=O)NC(=O)CC[C@@H](C)[C@H]1CC[C@H]2[C@@H]3[C@H](O)C[C@@H]4C[C@H](O)CC[C@]4(C)[C@H]3C[C@H](O)[C@]12C)C(=O)N[C@H](C(=O)N[C@@H](Cc1ccccc1)C(=O)O)C(C)C
B10: cholyl-Aβ6-20-amide (peptide)
peptide: Cholyl-HDSGYEVHHQKLVFF-NH2
SMILES: CC(C)C[C@H](NC(=O)[C@H](CCCCN)NC(=O)[C@H](CCC(N)=O)NC(=O)[C@H](Cc1c[nH]cn1)NC(=O)[C@H](Cc1c[nH]cn1)NC(=O)[C@@H](NC(=O)[C@H](CCC(=O)O)NC(=O)[C@H](Cc1ccc(O)cc1)NC(=O)CNC(=O)[C@H](CO)NC(=O)[C@H](CC(=O)O)NC(=O)[C@H](Cc1c[nH]cn1)NC(=O)CC[C@@H](C)[C@H]1CC[C@H]2[C@@H]3[C@H](O)C[C@@H]4C[C@H](O)CC[C@]4(C)[C@H]3C[C@H](O)[C@]12C)C(C)C)C(=O)N[C@H](C(=O)N[C@@H](Cc1ccccc1)C(=O)N[C@@H](Cc1ccccc1)C(N)=O)C(C)C
B11: cholyl-Aβ17-21 (peptide)
peptide: Cholyl-LVFFA-OH
SMILES: CC(C)C[C@H](NC(=O)CC[C@@H](C)[C@H]1CC[C@H]2[C@@H]3[C@H](O)C[C@@H]4C[C@H](O)CC[C@]4(C)[C@H]3C[C@H](O)[C@]12C)C(=O)N[C@H](C(=O)N[C@@H](Cc1ccccc1)C(=O)N[C@@H](Cc1ccccc1)C(=O)N[C@@H](C)C(=O)O)C(C)C

What was measured:
Assay in all cases: cell-based or functional assay
[1] = target: natural β-amyloid peptide β-AP1-40 (human)
Target sequence in this assay (peptide, as listed by the source): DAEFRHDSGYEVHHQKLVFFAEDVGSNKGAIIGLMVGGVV

[2] = target: natural β-amyloid peptide β-AP1-40 (human); remark: listed apart in the source
[3] = target: natural β-amyloid peptide β-AP1-40 (human); remark: listed apart in the source

Binder | % Iext'n; seeded extension assay; 25 mole % [1] [%] | % Inucl'n; nucleation assay; 100 mole % [1] [%] | ΔLag; nucleation assay; 100 mole % [1] [ratio] | % Inhibition of Plateau; nucleation assay; 100 mole % [2] [%] | Fold Increase in Lag Time; nucleation assay; 100 mole % [2] [fold] | % Inhibition of Plateau; nucleation assay; 33 mole % [3] [%] | Fold Increase in Lag Time; nucleation assay; 33 mole % [3] [fold] | also measured
B1 | 31 | 73 | 2.6 | 73 | 2.6 |  |  | 
B2 |  |  |  |  |  | ~0 | 1.4 | 
B3 |  |  |  |  |  | ~0 | 1.8 | 
B4 |  | -18 | 1.1 |  |  | 13 | 1.1 | 
B5 | 0 | -7 | 0.8 | ~0 | ~1 |  |  | 
iminobiotinyl-KLVFF-OH [iminobiotinyl-Aβ16-20] | 0 | 86 | 1.3 | 86 | 1.3 |  |  | 
B6 |  |  |  |  |  | 29 | 1 | 
B7 |  |  |  |  |  | 49 | 2 | % Inucl'n; nucleation assay; 33 mole % [1]: 70%; ΔLag; nucleation assay; 33 mole % [1]: 2 ratio
B8 | 56 | 100 | > 5 | 100 | > 5 | 50 | 2.3 | % Inhibition of Plateau; nucleation assay; 10 mole % [2]: ~0%; Fold Increase in Lag Time; nucleation assay; 10 mole % [2]: 2.1 fold; Fold Increase in Lag Time; nucleation assay; 33 mole % [2]: 2.6 fold
H-KLVFF-OH [unmodified Aβ16-20] | 8 | 0 | 1.1 | ~0 | ~1 |  |  | 
Cholyl-DSGYEVHHQKLVFF [cholyl-Aβ7-20] |  |  |  |  |  | ~0 | 2 | % Inhibition of Plateau; nucleation assay; 100 mole % [3]: 100%; Fold Increase in Lag Time; nucleation assay; 100 mole % [3]: > 4.5 fold
B9 |  | -23 | 3.1 | ~0 | 3.1 |  |  | % Inhibition of Plateau; nucleation assay; 10 mole % [2]: ~0%; Fold Increase in Lag Time; nucleation assay; 10 mole % [2]: 1.6 fold
Cholyl-KLTFF [cholyl-Aβ16-20 (Val18->Thr)] | 44 | -16 | 1.1 | ~0 | ~1 |  |  | 
Cholyl-KLVFF-OH [cholyl-Aβ16-20] | 11 | 72 | 1.8 | 100 | > 5 |  |  | Fold Increase in Lag Time; nucleation assay; 38 mole % [3]: 3.4 fold; % Inhibition of Plateau; nucleation assay; 10 mole % [2]: 40%; Fold Increase in Lag Time; nucleation assay; 10 mole % [2]: 2.4 fold
B10 |  |  |  |  |  | ~0 | 1.8 | 
Cholyl-HHQKLVFF [cholyl-Aβ13-20] |  |  |  |  |  | ~0 | 2.6 | % Inhibition of Plateau; nucleation assay; 10 mole % [2]: 57%; Fold Increase in Lag Time; nucleation assay; 10 mole % [2]: 2.2 fold
B11 | 91 | 100 | > 5 | 100 | > 5 |  |  | 
Cholyl-KLVFF-NH2 [cholyl-Aβ16-20-amide] | 52 | 70 | 5.4 |  |  |  |  | % Inhibition of Plateau; nucleation assay; 10 mole % [2]: ~0%; Fold Increase in Lag Time; nucleation assay; 10 mole % [2]: 2.7 fold; Fold Increase in Lag Time; nucleation assay; 33 mole % [2]: 5.6 fold
